In the test the target is human HSF2-YFP (human) (UniProt Q03933). The test can be described thus: fluorescent three-hybrid assay.
human HSF2-YFP (human), sequence (Q03933 whole entry): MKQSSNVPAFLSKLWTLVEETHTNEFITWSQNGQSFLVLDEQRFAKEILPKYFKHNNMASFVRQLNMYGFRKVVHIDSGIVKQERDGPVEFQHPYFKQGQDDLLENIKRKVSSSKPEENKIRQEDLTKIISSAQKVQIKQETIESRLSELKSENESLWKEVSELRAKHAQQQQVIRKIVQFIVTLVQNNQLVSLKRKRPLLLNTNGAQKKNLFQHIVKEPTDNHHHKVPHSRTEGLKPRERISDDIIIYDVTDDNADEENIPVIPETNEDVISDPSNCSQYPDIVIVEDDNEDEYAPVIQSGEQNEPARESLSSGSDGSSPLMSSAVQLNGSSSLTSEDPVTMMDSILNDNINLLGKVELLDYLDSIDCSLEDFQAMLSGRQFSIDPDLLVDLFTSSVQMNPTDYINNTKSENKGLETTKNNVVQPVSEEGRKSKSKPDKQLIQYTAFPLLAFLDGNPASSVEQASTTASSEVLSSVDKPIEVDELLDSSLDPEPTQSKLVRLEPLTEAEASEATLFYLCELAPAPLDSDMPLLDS

CBP-HA, Q92793 1-2442 (natural protein), sequence (Q92793 whole entry): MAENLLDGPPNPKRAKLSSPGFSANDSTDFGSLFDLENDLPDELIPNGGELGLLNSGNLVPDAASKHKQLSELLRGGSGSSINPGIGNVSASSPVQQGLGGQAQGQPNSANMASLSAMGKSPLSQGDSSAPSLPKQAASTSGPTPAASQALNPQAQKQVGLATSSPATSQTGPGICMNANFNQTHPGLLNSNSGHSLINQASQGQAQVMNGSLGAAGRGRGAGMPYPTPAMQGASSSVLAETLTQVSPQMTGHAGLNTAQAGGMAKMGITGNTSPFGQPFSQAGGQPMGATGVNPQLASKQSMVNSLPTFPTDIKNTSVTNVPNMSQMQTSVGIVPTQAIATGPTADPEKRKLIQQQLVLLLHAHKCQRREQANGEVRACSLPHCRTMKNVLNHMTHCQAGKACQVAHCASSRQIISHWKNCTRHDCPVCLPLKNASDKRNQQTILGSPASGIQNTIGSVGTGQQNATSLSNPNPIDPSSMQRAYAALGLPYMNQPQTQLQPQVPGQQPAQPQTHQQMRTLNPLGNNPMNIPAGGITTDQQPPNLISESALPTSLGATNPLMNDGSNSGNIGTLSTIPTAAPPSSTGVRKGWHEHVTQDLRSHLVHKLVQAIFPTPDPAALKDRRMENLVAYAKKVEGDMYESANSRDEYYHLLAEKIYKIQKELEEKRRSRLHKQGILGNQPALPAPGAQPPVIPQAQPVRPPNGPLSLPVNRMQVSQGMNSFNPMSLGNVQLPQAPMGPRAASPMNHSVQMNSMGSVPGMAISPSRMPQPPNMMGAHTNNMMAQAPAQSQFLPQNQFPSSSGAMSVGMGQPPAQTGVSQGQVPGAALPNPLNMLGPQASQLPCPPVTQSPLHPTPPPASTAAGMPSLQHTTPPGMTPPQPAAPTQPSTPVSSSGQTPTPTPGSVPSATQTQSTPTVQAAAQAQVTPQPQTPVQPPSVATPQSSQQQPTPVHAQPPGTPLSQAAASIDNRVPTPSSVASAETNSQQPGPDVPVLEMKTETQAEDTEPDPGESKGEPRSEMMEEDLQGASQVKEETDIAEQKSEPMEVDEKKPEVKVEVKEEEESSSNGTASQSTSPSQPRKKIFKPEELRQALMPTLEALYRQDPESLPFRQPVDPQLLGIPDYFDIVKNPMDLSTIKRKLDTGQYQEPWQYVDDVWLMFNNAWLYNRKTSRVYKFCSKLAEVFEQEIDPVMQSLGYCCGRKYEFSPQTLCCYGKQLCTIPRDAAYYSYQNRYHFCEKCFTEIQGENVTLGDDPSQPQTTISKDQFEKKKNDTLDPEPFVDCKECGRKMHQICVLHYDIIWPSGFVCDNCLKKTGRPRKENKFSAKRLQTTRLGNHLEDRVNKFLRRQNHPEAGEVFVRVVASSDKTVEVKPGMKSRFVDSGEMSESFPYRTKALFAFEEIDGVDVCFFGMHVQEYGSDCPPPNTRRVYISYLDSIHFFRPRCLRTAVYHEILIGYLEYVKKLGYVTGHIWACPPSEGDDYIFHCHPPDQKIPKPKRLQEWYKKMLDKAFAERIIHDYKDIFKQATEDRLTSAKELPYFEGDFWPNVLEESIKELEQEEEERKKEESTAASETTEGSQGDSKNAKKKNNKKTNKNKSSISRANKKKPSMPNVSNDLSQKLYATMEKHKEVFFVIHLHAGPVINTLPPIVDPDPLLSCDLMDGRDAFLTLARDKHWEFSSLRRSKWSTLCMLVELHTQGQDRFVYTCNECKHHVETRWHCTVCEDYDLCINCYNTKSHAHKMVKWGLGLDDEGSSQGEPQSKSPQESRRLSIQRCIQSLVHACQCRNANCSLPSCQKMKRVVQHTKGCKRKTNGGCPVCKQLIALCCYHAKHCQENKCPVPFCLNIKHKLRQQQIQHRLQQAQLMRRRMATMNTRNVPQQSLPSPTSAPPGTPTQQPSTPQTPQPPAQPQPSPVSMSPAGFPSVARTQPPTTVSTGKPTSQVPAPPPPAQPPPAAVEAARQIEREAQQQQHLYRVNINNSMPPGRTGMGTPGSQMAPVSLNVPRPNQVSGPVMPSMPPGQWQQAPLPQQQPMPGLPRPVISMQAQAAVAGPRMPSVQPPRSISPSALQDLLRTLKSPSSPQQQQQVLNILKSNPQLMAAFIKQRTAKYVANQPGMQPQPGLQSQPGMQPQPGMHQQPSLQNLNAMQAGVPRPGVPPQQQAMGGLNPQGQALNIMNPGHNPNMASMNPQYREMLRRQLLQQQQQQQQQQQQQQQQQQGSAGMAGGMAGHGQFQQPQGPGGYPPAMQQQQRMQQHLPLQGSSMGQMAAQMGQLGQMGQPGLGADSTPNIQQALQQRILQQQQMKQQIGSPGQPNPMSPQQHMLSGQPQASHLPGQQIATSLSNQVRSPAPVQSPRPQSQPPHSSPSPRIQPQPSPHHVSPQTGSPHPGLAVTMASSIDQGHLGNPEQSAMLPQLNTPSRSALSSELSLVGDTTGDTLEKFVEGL

Substance CBP-HA, Q92793 1-2442 (natural protein) had a percent of cells showing co-recruitment to the HSF2-YFP focus of 68.4%.
On to EP300-HA, Q09472 1-2414, for which the percent of cells showing co-recruitment to the HSF2-YFP focus worked out at 48.6%.
In the case of “endogenous CBP of BHK cells (natural protein)”, the percent of cells showing co-recruitment with HSF2-YFP was 43.9%.

Values taken from paper doi:10.1101/481457.
